# Data as given in IntAct's records for PubMed 19074278.
# B1: Calcium and calcium/calmodulin-dependent serine/threonine-protein kinase (Lotus japonicus), A0AAR7 (parent)
# chain: MGYDQTRKLSDEYEISEILGRGGFSVVRKGTKKSGNEKTQVAIKTLRRLGSSPSGTGGGQKSTATVMGFPSLRQVSVSDALLTNEILVMRRIVENVSPHPNVIDLYDVCEDSNGVHLVLELCSGGELFDRIVAQDKYAETEAAAVVRQIAAGLEAVHKADIVHRDLKPENCLFLDSRKDSPLKIMDFGLSSVEEFTDPVVGLFGSIDYVSPEALSQGKITAKSDMWSLGVILYILLSGYPPFIAQNNRQKQQMIINGNFSFYEKTWKGITQSAKQLISSLLTVDPSKRPSAQELLSHPWVRGDKAKDEQMDPEIVSRLQSFNARRKLRAAAIASVWSSTIFLRTKKLRSLVGTYDLKEEEIESLRIHFKKICGNGDNATLSEFVEVLKAMKMPSLIPLAPRIFDLFDNNRDGTIDMREILCGFSSLKNSKGDDALRLCFQMYDTDRSGCITKEEVASMLCALPEECLPADITEPGKLDEIFDLMDANSDGKVTFEEFKAAMQRDSSLQDMLLSSLRPS
# partner: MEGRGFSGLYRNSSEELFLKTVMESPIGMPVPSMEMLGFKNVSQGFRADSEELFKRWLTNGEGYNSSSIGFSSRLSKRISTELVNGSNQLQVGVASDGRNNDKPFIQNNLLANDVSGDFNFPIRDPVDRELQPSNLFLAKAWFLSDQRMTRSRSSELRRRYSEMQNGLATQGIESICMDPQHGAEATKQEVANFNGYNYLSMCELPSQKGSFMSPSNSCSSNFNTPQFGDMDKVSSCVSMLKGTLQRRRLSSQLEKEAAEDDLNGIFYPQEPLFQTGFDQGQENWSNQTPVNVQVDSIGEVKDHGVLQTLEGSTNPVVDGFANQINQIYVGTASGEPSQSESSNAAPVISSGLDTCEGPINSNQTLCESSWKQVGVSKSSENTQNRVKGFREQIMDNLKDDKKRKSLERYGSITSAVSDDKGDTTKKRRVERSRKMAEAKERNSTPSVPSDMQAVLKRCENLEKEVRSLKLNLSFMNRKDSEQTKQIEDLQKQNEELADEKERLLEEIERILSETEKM
# Variants of: B1
# Conditions: with cclop_lotja CYCLOPS
row,Variant,effect of a mutation on the interaction
1,MGYDQTRKLSDEYEISEILGRGGFSVVRKGTKKSGNEKTQVAIATLRRLGSSPSGTGGGQKSTATVMGFPSLRQVSVSDALLTNEILVMRRIVENVSPHPNVIDLYDVCEDSNGVHLVLELCSGGELFDRIVAQDKYAETEAAAVVRQIAAGLEAVHKADIVHRDLKPENCLFLDSRKDSPLKIMDFGLSSVEEFTDPVVGLFGSIDYVSPEALSQGKITAKSDMWSLGVILYILLSGYPPFIAQNNRQKQQMIINGNFSFYEKTWKGITQSAKQLISSLLTVDPSKRPSAQELLSHPWVRGDKAKDEQMDPEIVSRLQSFNARRKLRAAAIASVWSSTIFLRTKKLRSLVGTYDLKEEEIESLRIHFKKICGNGDNATLSEFVEVLKAMKMPSLIPLAPRIFDLFDNNRDGTIDMREILCGFSSLKNSKGDDALRLCFQMYDTDRSGCITKEEVASMLCALPEECLPADITEPGKLDEIFDLMDANSDGKVTFEEFKAAMQRDSSLQDMLLSSLRPS [K44A],disrupting interaction
2,MGYDQTRKLSDEYEISEILGRGGFSVVRKGTKKSGNEKTQVAIATLRRLGSSPSGTGGGQKSTATVMGFPSLRQVSVSDALLTNEILVMRRIVENVSPHPNVIDLYDVCEDSNGVHLVLELCSGGELFDRIVAQDKYAETEAAAVVRQIAAGLEAVHKADIVHRDLKPENCLFLDSRKDSPLKIMDFGLSSVEEFTDPVVGLFGSIDYVSPEALSQGKITAKSDMWSLGVILYILLSGYPPFIAQNNRQKQQMIINGNFSFYEKIWKGITQSAKQLISSLLTVDPSKRPSAQELLSHPWVRGDKAKDEQMDPEIVSRLQSFNARRKLRAAAIASVWSSTIFLRTKKLRSLVGTYDLKEEEIESLRIHFKKICGNGDNATLSEFVEVLKAMKMPSLIPLAPRIFDLFDNNRDGTIDMREILCGFSSLKNSKGDDALRLCFQMYDTDRSGCITKEEVASMLCALPEECLPADITEPGKLDEIFDLMDANSDGKVTFEEFKAAMQRDSSLQDMLLSSLRPS [K44A;T265I],disrupting interaction
3,MGYDQTRKLSDEYEISEILGRGGFSVVRKETKKSGNEKTQVAIKTLRRLGSSPSGTGGGQKSTATVMGFPSLRQVSVSDALLTNEILVMRRIVENVSPHPNVIDLYDVCEDSNGVHLVLELCSGGELFDRIVAQDKYAETEAAAVVRQIAAGLEAVHKADIVHRDLKPENCLFLDSRKDSPLKIMDFGLSSVEEFTDPVVGLFGSIDYVSPEALSQGKITAKSDMWSLGVILYILLSGYPPFIAQNNRQKQQMIINGNFSFYEKTWKGITQSAKQLISSLLTVDPSKRPSAQELLSHPWVRGDKAKDEQMDPEIVSRLQSFNARRKLRAAAIASVWSSTIFLRTKKLRSLVGTYDLKEEEIESLRIHFKKICGNGDNATLSEFVEVLKAMKMPSLIPLAPRIFDLFDNNRDGTIDMREILCGFSSLKNSKGDDALRLCFQMYDTDRSGCITKEEVASMLCALPEECLPADITEPGKLDEIFDLMDANSDGKVTFEEFKAAMQRDSSLQDMLLSSLRPS [G30E],disrupting interaction
